Data reported in patent publication US7638334B2, “Method for generating engineered cells by homologously recombining segments having increased degeneracy” (Morphotek, Inc., priority 2002, dated 2009).

Tested on: endogenous MMR activity
Assay: pCAR-OF β-galactosidase reporter assay for MMR deficiency (in situ X-gal staining)
Assay type: cell-based, human
Conditions: PMS134 expressed from pEF vector in HEK293 cells
Text: A method used to detect MMR deficiency in eukaryotic cells is to employ a reporter gene that has a polynucleotide repeat inserted within the coding region that disrupts its reading frame due to a frame shift. In the case where MMR is defective, the reporter gene will acquire random mutations (i.e. insertions and/or deletions) within the polynucleotide repeat yielding clones that contain a functional reporter gene. An example of the ability to alter desired genes via defective MMR comes from experiments using HEK293 cells (described above), where a mammalian expression construct containing a defective β-galactosidase gene (referred to as pCAR-OF) was transfected into 293PMS134 or 293vec cells as described above. The pCAR-OF vector consists of a β-galactosidase gene containing a 29-basepair poly-CA tract inserted at the 5′ end of its coding region, which causes the wild-type reading frame to shift out-of-frame. […] Another reporter vector called pCAR-IF contains a β-galactosidase in which a 27-bp poly-CA repeat was cloned into the same site as the pCAR-OF gene, but it is biologically active because the removal of a single repeat restores the open reading frame and produces a functional chimeric β-galactosidase polypeptide (not shown). […] Cells were scored positive if the colonies turned blue in the presence of X-gal substrate and scored negative if colonies remained white. […]

dominant negative effect on MMR: robust dominant negative effect
B1: PMS134: previously published dominant negative human PMS2 mismatch repair mutant (SEQ ID NO:11/12) (protein, listed as Homo sapiens)
chain: RGGSGVASMERAESSSTEPAKAIKPIDRKSVHQICSGQVVLSLSTAVKELVENSLDAGATNIDLKLKDYGVDLIEVSDNGCGVEEENFEGLTLKHHTSKIQEFADLTQVETFGFRGEALSSLCALSDVTISTCHASAKVGT
